Source: paper PMC3795721, “Screening for Protein-DNA Interactions by Automatable DNA-Protein Interaction ELISA”

T1: AtTIFY1 (Arabidopsis thaliana, UniProt Q9LRH6 1-309)
T1 sequence: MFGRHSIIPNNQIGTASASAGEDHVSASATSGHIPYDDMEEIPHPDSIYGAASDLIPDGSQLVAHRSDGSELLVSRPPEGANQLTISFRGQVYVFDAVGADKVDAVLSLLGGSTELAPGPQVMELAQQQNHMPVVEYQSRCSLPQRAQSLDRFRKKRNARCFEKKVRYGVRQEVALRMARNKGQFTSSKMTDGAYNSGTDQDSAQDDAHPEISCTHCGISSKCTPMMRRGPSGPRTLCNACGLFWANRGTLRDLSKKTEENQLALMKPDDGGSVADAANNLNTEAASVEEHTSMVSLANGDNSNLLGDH

B1: 290 (dsDNA)
DNA 1: AAAAAATGTCTAGACTCGGACATTCGAAAA
DNA 2: TTTTCGAATGTCCGAGTCTAGACATTTTTT
B2: 334 (dsDNA)
DNA 1: AAAAAATTCCGGCTTGACGCTGCATAAAAA
DNA 2: TTTTTATGCAGCGTCAAGCCGGAATTTTTT
B3: 204 (dsDNA)
DNA 1: AAAAAAGGAAGTACTGACGATCTGGAAAAA
DNA 2: TTTTTCCAGATCGTCAGTACTTCCTTTTTT
B4: 314 (dsDNA)
DNA 1: AAAAAATTGGCACACATGATCTCGGGAAAA
DNA 2: TTTTCCCGAGATCATGTGTGCCAATTTTTT
B5: 238 (dsDNA)
DNA 1: AAAAAATCGGGGATCCGGGCGGTTGCAAAA
DNA 2: TTTTGCAACCGCCCGGATCCCCGATTTTTT
B6: 305 (dsDNA)
DNA 1: AAAAAACGCTTTCAGTTTTGATCTTAAAAA
DNA 2: TTTTTAAGATCAAAACTGAAAGCGTTTTTT
B7: 227 (dsDNA)
DNA 1: AAAAAAGGCTCCGGCCCCCAATCGCAAAAA
DNA 2: TTTTTGCGATTGGGGGCCGGAGCCTTTTTT
B8: 160 (dsDNA)
DNA 1: AAAAAACGGTCGCGATCGTTAATGATAAAA
DNA 2: TTTTATCATTAACGATCGCGACCGTTTTTT
B9: probe 38 version with palindromic TGATCA (dsDNA)
DNA 1: AAAAAATTTATACTTGATCATGGCTTAAAA
DNA 2: TTTTAAGCCATGATCAAGTATAAATTTTTT
B10: 300 (dsDNA)
DNA 1: AAAAAACTCGCGCTTGCATCTGTGCGAAAA
DNA 2: TTTTCGCACAGATGCAAGCGCGAGTTTTTT
B11: 130 (dsDNA)
DNA 1: AAAAAACGCAACTCCGGATGTGGGGTAAAA
DNA 2: TTTTACCCCACATCCGGAGTTGCGTTTTTT
B12: 15 (dsDNA)
DNA 1: AAAAAAATCCGATCGATGCATATATAAAA
DNA 2: TTTTATATATGCATCGATCGGATTTTTTT

Assays:
AtTIFY1 [1] = target: T1, AtTIFY1; assay: DPI-ELISA; DPI-ELISA, streptavidin 384-well plate, 1-2 pmol biotinylated dsDNA per well, crude native E. coli extract, anti-His detection; buffer as in Brand et al. [46],; high values mean tight binding; conditions: tags: C-terminal His (pET-DEST42); label: 5' biotin on forward strand
WRKY33 cDBD = WRKY33 cDBD (Arabidopsis thaliana, UniProt Q8S8P5 345-449); assay: as above; conditions: tags: C-terminal His (pET-DEST42); label: 5' biotin on forward strand
AtTIFY1 [2] = target: T1, AtTIFY1; assay: DPI-ELISA; highest affinity; DPI-ELISA on streptavidin plates with biotinylated dsDNA (1 pmol in Figure S1, 2 pmol in Figure 1 legend) and crude E. coli extract; anti-His detection; buffer, pH and temperature not given (ref 46); conditions: protein: recombinant; tags: C-terminal His (pET-DEST42); label: 5' biotin on forward strand; blunt

WRKY33 cDBD, sequence (Q8S8P5 other isoform, or with tags, fused parts or gaps): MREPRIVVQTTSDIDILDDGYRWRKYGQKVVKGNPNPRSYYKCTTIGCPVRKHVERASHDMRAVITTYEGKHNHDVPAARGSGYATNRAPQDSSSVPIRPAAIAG

| Binder | binding signal (AtTIFY1 [1]) | binding signal (WRKY33 cDBD) | binding result (AtTIFY1 [2]) |
| --- | --- | --- | --- |
| B1 | 1.52 relative normalized absorbance |  |  |
| B2 | 1.43 relative normalized absorbance |  |  |
| B3 | 1.52 relative normalized absorbance |  |  |
| B4 | 1.5 relative normalized absorbance |  |  |
| B5 | 1.69 relative normalized absorbance |  |  |
| B6 | 1.55 relative normalized absorbance |  |  |
| B7 | 1.44 relative normalized absorbance |  |  |
| B8 | 1.47 relative normalized absorbance | 2.05 relative normalized absorbance |  |
| B9 |  |  | binds |
| B10 | 1.45 relative normalized absorbance |  |  |
| B11 | 1.54 relative normalized absorbance |  |  |
| B12 | 1.63 relative normalized absorbance |  |  |
